The source of these data is paper PMC10063446 (Nature Immunology, 2023).

The target in assay [1] is SARS-CoV-2 RBD immobilised on the CM5 chip (SARS-CoV-2 wild-type (assumed)). The assay is described as follows: SPR. The settings on record: both partners purified.
The target in assay [2] is T1, wild-type SARS-CoV-2 S protein expressed on the surface of HEK 293T cells (SARS-CoV-2 wild-type (MN908947.3), UniProt P0DTC2).
T1 construct: also called S^WT protein
Nature of the assay: flow cytometry on cells. The settings on record: one partner purified.

The target of assay [3] is T2, recombinant RBD protein of wild-type SARS-CoV-2 (ELISA antigen) (SARS-CoV-2 wild-type, UniProt P0DTC2).
T2 construct: No catalogue number printed
The assay is described as follows: ELISA. The following applies: one partner purified. (In an ELISA, binding on a coated surface is turned into a signal by an enzyme label.)

The target in assay [4] is T3, recombinant wild-type SARS-CoV-2 S trimer (ELISA antigen) (SARS-CoV-2 wild-type, UniProt P0DTC2).
T3 construct: also called S^WT trimer; recombinant S protein; source: bought: Sino Biological
The assay is described as follows: ELISA. The settings on record: one partner purified.

B1: P2S-2E9 (full IgG1) (antibody, V domains shown)
VH: QITLKESGPTLVKPTQTLTLTCTFSGFSLSTSGVGVGWIRQPPGKALEWLALIYWDDDKRYSPSLKSRLTITKDTSKNQVVLTMTNMDPVDTATYYCARHRIGYIFDYWGQGTLVTVSS
VL: QSALTQPASVSGSPGQSITISCTGTSSDVGDFNYVSWYQQHPGKAPKLMIYDVTKRPSGVSNRFSGSKSGNTASLTISGLQAEDEADYCCSSYTTSSISFGGGTKLTVL
B1: the binding result in assay [1], in assay [2], in assay [3] and in assay [4] was “binds” throughout.

B2: P5-1H1 (full IgG1) (antibody, V domains shown)
VH: EVQLVESGGGLIQPGGSLRLSCAASGITVSSNYMTWVRQPPGKGLEWVSVIYSGGSTFYADPVKGRFTISRDNSRNTLYLQMNSLRAEDTAVYYCARDLQVYGMDVWGQGTTVTVSS
VL: DIQLTQSPSFLSASVGDRVTITCRASQGISNFLAWYQQKPGKAPKLLIYAASTLQGGVPSTFSGSGSGTEFTLTISSLQPEDFATYYCQHLNDYPLFGGGTRVEIK
For the molecule B2, the binding result in assay [2] and in assay [4] was “binds” in each case.

B3: P2-1B1 (full IgG1) (antibody, V domains shown)
VH: QVQLVQSGAEVKRPGSSVKVSCKASGGTFSSYAISWVRQAPGQGPEWMGGIIPIFGTPHNAQKFQGRVTITADESTSTAYMELSSLRSEDTAMYYCSRTKGDILTGYTDYYFDSWGQGTLVTVSS
VL: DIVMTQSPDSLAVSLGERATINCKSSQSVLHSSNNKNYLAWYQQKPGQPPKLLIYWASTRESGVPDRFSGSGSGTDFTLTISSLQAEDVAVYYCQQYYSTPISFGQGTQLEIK
On to B3, for which the binding result in assay [4] is “binds”.

B4: P5-1C8 (full IgG1) (antibody, V domains shown)
VH: EVQLVESGGGLIQPGGSLRLSCAASEIIVSRNYMNWVRQAPGKGLEWVSVIYSGGSTFYADSVKGRFTISRDNSENTLYLQMNSLRAEDTAVYYCARGYGDYYFDYWGRGTLVTVSS
VL: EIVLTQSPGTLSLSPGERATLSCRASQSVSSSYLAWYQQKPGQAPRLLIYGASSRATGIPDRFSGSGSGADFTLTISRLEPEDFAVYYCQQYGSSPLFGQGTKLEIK
For B4, in assay [4], the binding result is “binds”.

B5: P5S-3B11 (full IgG1) (antibody, V domains shown)
VH: EVQLVESGGGLVQPGGSLRISCAASGLTFTGYWMNWVRQAPGKGLEWVANIKEDGSEKYYVDSVKGRFTISRDNAKNSLYLQMNSLRVEDTAVYYCARLRWLRGNFDHWGQGTLVTVSS
VL: NFMLTQPHSVSESPGKTVTISCTGSNGYIANNYVQWYQQRPGSVPTVVIYEDNQRPSGVPDRFSGSIDSSSNSASLIISGLKTEDEADYYCQSYDTPNVVFGGGTKLTVL
notes: IgG1; group 2
For the molecule B5, the binding result in assay [1] is recorded as “binds”.
